The target in this experiment is Aβ42 fibers (Homo sapiens (Human), UniProt P05067 672-713). In words: pyrene excimer fluorescence (FIG. 11A legend).

pyrene = pyrene fluorescent label

Aβ42 fibers, sequence (P05067 672-713 limits assumed): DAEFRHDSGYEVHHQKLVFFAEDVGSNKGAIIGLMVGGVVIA

B1: Peptide probe specific for Aβ (SEQ ID NO:36) labeled at each terminus with pyrene (peptide)
peptide: pyrene-KLVFFAEDVGSNKGAIIGLM-pyrene
notes: also called Aβ peptide probe; dipyrene labeled peptide probe
For B1, the binding result is listed as “binds”.

These data come from patent publication US20130108549A1 (ADLYFE, published 2013).
